According to the Human Domainome abundance scans (Beltran et al. 2025):
± gives the uncertainty stated by the source.

B1: Far upstream element-binding protein 3, residues 75 to 150; numbered along this chain, Q96I24 (parent)
chain: RTVITEEFKVPDKMVGFIIGRGGEQISRIQAESGCKIQIASESSGIPERPCVLTGTPESIEQAKRLLGQIVDRCRN

Variants of: B1
Assay: abundance fitness (aPCA) (normalised: wild type 0, dead -1); higher = more abundant; growth selection in yeast, the domain comes from the species named
Conditions: Homo sapiens
Work on RTVITEEFKVPDKMVGFIIGRGGEQISRIQAGSGCKIQIASESSGIPERPCVLTGTPESIEQAKRLLGQIVDRCRN [E32G] yielded an abundance fitness of -0.237 ± 0.026. With RTVITEEFKVPDKMVGFIIGRGGEQISRIQALSGCKIQIASESSGIPERPCVLTGTPESIEQAKRLLGQIVDRCRN [E32L] the abundance fitness was -0.044 ± 0.03. In the case of RTVITEEFKVPDKMVGFIIGRGGEQISRIQAESGCEIQIASESSGIPERPCVLTGTPESIEQAKRLLGQIVDRCRN [K36E], the abundance fitness is reported as -0.02 ± 0.039. RTVITEEFKVPDKMVGFIIGRGGEQISRIQAESGCIIQIASESSGIPERPCVLTGTPESIEQAKRLLGQIVDRCRN [K36I] showed an abundance fitness of -0.112 ± 0.061. Variant RTVITEEFKVPDKMVGFIIGRGGEQISRIQAESGCDIQIASESSGIPERPCVLTGTPESIEQAKRLLGQIVDRCRN [K36D] has an abundance fitness of 0.001 ± 0.054. In the case of RTVITEEFKVPDKMVGFIIGRGGEQISRIQAESGCLIQIASESSGIPERPCVLTGTPESIEQAKRLLGQIVDRCRN [K36L], the abundance fitness is reported as -0.057 ± 0.035. In the case of RTVITEEFKVPDKMVGFIIGRGGEQISRIQAESGCFIQIASESSGIPERPCVLTGTPESIEQAKRLLGQIVDRCRN [K36F], the abundance fitness is reported as -0.234 ± 0.07. RTVITEEFKVPDRMVGFIIGRGGEQISRIQAESGCKIQIASESSGIPERPCVLTGTPESIEQAKRLLGQIVDRCRN [K13R] gave an abundance fitness of -0.046 ± 0.026. Variant RTVITEEFKVPDKMVGFIIGRGGEQISRIQKESGCKIQIASESSGIPERPCVLTGTPESIEQAKRLLGQIVDRCRN [A31K] has an abundance fitness of 0.033 ± 0.041. RTVITEEFKVPDKMVGFIIGRGGEQISRIQQESGCKIQIASESSGIPERPCVLTGTPESIEQAKRLLGQIVDRCRN [A31Q] showed an abundance fitness of 0.003 ± 0.038. With RTVITEEFKVPDKMVGFIIGRGGEQISRIQAESGCKIQIASESSGIPEIPCVLTGTPESIEQAKRLLGQIVDRCRN [R49I] the abundance fitness was -0.141 ± 0.07. For RTVITEEFKVPDKMVGFIIGRGGEQISRIQAESGCKIQIASESSDIPERPCVLTGTPESIEQAKRLLGQIVDRCRN [G45D], the abundance fitness was -0.011 ± 0.041. For RTVITEEFKVPDKMVGFIIGRGGEQISRIQAESGCKIQIASESSHIPERPCVLTGTPESIEQAKRLLGQIVDRCRN [G45H], the abundance fitness was -0.065 ± 0.057. For RTVITEEFKVPDKMVGFIIGRGGEQISRIQAESGCKEQIASESSGIPERPCVLTGTPESIEQAKRLLGQIVDRCRN [I37E], the abundance fitness was -0.595 ± 0.038. Work on RTVITEEFKVPDKMVGFIIGRGGEQISRIQAESGCKLQIASESSGIPERPCVLTGTPESIEQAKRLLGQIVDRCRN [I37L] yielded an abundance fitness of -0.158 ± 0.031. RTVITEMFKVPDKMVGFIIGRGGEQISRIQAESGCKIQIASESSGIPERPCVLTGTPESIEQAKRLLGQIVDRCRN [E7M] showed an abundance fitness of -0.111 ± 0.04. RTVITESFKVPDKMVGFIIGRGGEQISRIQAESGCKIQIASESSGIPERPCVLTGTPESIEQAKRLLGQIVDRCRN [E7S] showed an abundance fitness of -0.019 ± 0.032. RTVITEQFKVPDKMVGFIIGRGGEQISRIQAESGCKIQIASESSGIPERPCVLTGTPESIEQAKRLLGQIVDRCRN [E7Q] showed an abundance fitness of -0.072 ± 0.039. Variant YTVITEEFKVPDKMVGFIIGRGGEQISRIQAESGCKIQIASESSGIPERPCVLTGTPESIEQAKRLLGQIVDRCRN [R1Y] has an abundance fitness of -0.126 ± 0.095. HTVITEEFKVPDKMVGFIIGRGGEQISRIQAESGCKIQIASESSGIPERPCVLTGTPESIEQAKRLLGQIVDRCRN [R1H] gave an abundance fitness of -0.034 ± 0.14. In the case of RTVITEEFKVPDKMVGFIIGRGGEQISRIQAESGCKIQIACESSGIPERPCVLTGTPESIEQAKRLLGQIVDRCRN [S41C], the abundance fitness is reported as -0.026 ± 0.044. Variant RTVITEEFKVPDKMVGFIIGRGGEQISRIKAESGCKIQIASESSGIPERPCVLTGTPESIEQAKRLLGQIVDRCRN [Q30K] has an abundance fitness of -0.171 ± 0.047. In the case of RKVITEEFKVPDKMVGFIIGRGGEQISRIQAESGCKIQIASESSGIPERPCVLTGTPESIEQAKRLLGQIVDRCRN [T2K], the abundance fitness is reported as 0 ± 0.043. RTVITEEFKVPDKMVGFAIGRGGEQISRIQAESGCKIQIASESSGIPERPCVLTGTPESIEQAKRLLGQIVDRCRN [I18A] showed an abundance fitness of -0.225 ± 0.031. Variant RTVITEEFKVPDKMVGFIIGRGGEQISRIQAESGCKIQIASESSGIPERPCVLTGTPESIEWAKRLLGQIVDRCRN [Q62W] has an abundance fitness of -0.102 ± 0.044. In the case of RTVITEEFKVPDKMVGFIHGRGGEQISRIQAESGCKIQIASESSGIPERPCVLTGTPESIEQAKRLLGQIVDRCRN [I19H], the abundance fitness is reported as -0.163 ± 0.074. Variant RTVITEEDKVPDKMVGFIIGRGGEQISRIQAESGCKIQIASESSGIPERPCVLTGTPESIEQAKRLLGQIVDRCRN [F8D] has an abundance fitness of -0.208 ± 0.07. Variant RTVITEEFKVPDKMVGFIIGRGGEQIGRIQAESGCKIQIASESSGIPERPCVLTGTPESIEQAKRLLGQIVDRCRN [S27G] has an abundance fitness of 0.004 ± 0.031. With RTVITEEFKVPDKMVGFIIGRGGEQISRIQAESGCKIQIASESSGIPERPGVLTGTPESIEQAKRLLGQIVDRCRN [C51G] the abundance fitness was -0.206 ± 0.028. With RTVITEEFKVPDKMVGFIIGRGGEQISRIQAESGCKIQIASESSGIPERPLVLTGTPESIEQAKRLLGQIVDRCRN [C51L] the abundance fitness was -0.062 ± 0.035. Work on RTVITEEFKVPDKMVGFIIGRGGEQISRIQAESGCKIQIASESSGIPERPCVLTGTPESIEQAARLLGQIVDRCRN [K64A] yielded an abundance fitness of -0.429 ± 0.031. RTVITEEFKVPDKMVGFIIGRGGEQISRIQAESGCKIQIASESSGIVERPCVLTGTPESIEQAKRLLGQIVDRCRN [P47V] gave an abundance fitness of -0.041 ± 0.03. For RTVITEEFKVPDKMVGFIIGRGGEQISRIQAESGCKIQIASESSGIPERPCVLTGTPESIEQRKRLLGQIVDRCRN [A63R], the abundance fitness was -1.22 ± 0.048. RTVITEEFKVPDKMVGFIIGRGSEQISRIQAESGCKIQIASESSGIPERPCVLTGTPESIEQAKRLLGQIVDRCRN [G23S] showed an abundance fitness of -0.087 ± 0.031. In the case of RTVITEEFKVPDKMVGFIIGRGGEQISRIQAESGCKIQIASHSSGIPERPCVLTGTPESIEQAKRLLGQIVDRCRN [E42H], the abundance fitness is reported as 0.01 ± 0.084. Work on RTVITEEFKVPDKMVGFIIGRGGEQISRIQAESGCKIQIASASSGIPERPCVLTGTPESIEQAKRLLGQIVDRCRN [E42A] yielded an abundance fitness of -0.039 ± 0.037.
